According to the DeepSol protein solubility set:

Test: soluble on expression in E. coli; label from the status in PepcDB or PDB records

Sequence: MGSDKIHHHHHHMHFNAPSYPKQWFDTKSAGTPVVILTGMGCSYEEWYEVIQSLRPAHRILSFHRHSWKEGDGIHRTGHAIQQLQTLLSGSNVDEPILLIGHSYGGLIAQEFTKLFPERIKGLILVDSTSVDLHELDALDTPVLDAVSSDAAWQALCRDYAIKTKEQLKQLLQPVLTGAQKRLPQAVQDALVDFQTEPDLYAMMDSEVEHWKTDAARIRTGPFPDVPLIVIGRDPELSIQDGINDGLPEDELRQVEETWHRLVLRQATLTKQADFITATGAGHAIHLDRPDLVISAVTKLDVT
- soluble on expression in E. coli: not soluble

Sequence: MHRTYSLRNSRAPTASQLQNPPPPPSTTKGRFFGKGGLAYSFRRSAAGAFGPELSRKLSQLVKIEKNVLRSMELTANERRDAAKQLSIWGLENDDDVSDITDKLGVLIYEVSELDDQFIDRYDQYRLTLKSIRDIEGSVQPSRDRKDKITDKIAYLKYKDPQSPKIEVLEQELVRAEAESLVAEAQLSNITRSKLRAAFNYQFDSIIEHSEKIALIAGYGKALLELLDDSPVTPGETRPAYDGYEASKQIIIDAESALNEWTLDSAQVKPTLSFKQDYEDFEPEEGEEEEEEDGQGRWSEDEQEDGQIEEPEQEEEGAVEEHEQVGHQQSESLPQQTTA
- soluble on expression in E. coli: soluble

Sequence: MGSDKIHHHHHHLSVRATISDSKSDFHKEFPYVIPAIYRKLADELLVELHLLSHQKNFKKDSIFSTGLKEVFSKFTSGYKPSEHATKLFDAICNCNGFNPTEINNSSEQLVSNAKSFTKEDLNSFLSKTNNDNKGYDYYSRINAIGIYKLVSEMPLFKEVKEEDLNKEINDISKSLGYQYSRVEKDISMYKSNIEKMKQALEIIALNLKTK
- soluble on expression in E. coli: not soluble

Sequence: SLQKFNQIHSLFEHLPANYGEFSDFEQKIATLAQEMKVDLSLYEIDHLSIRVNTEDKAKSWLTTLLNYGKILSNNLVNGRAIYLIELEQPLLFMGQRVFIIELPFPKNKHYPVESWEHIEFVIPFLPNESSIEWVERVQQQFLWNQSGNLTIKVDEPKVDGEQLPNPSIAVSFADKSQNHVCIKVHPFNIKNIIKVSEG
- soluble on expression in E. coli: soluble

Sequence: MALYQRWRCLRLQGLQACRLHTAVVSTPPRWLAERLGLFEELWAAQVKRLASMAQKEPRTIKISLPGGQKIDAVAWNTTPYQLARQISSTLADTAVAAQVNGEPYDLERPLETDSDLRFLTFDSPEGKAVFWHSSTHVLGAAAEQFLGAVLCRGPSTEYGFYHDFFLGKERTIRGSELPVLERICQELTAAARPFRRLEASRDQLRQLFKDNPFKLHLIEEKVTGPTATVYGCGTLVDLCQGPHLRHTGQIGGLKLLSNSSSLWRSSGAPETLQRVSGISFPTTELLRVWEAWREEAELRDHRRIGKEQELFFFHELSPGSCFFLPRGTRVYNALVAFIRAEYAHRGFSEVKTPTLFSTKLWEQSGHWEHYQEDMFAVQPPGSDRPPSSQSDDSTRHITDTLALKPMNCPAHCLMFAHRPRSWRELPLRLADFGALHRAEASGGLGGLTRLRCFQQDDAHIFCTTDQLEAEIQSCLDFLRSVYAVLGFSFRLALSTRPSGFLGDPCLWDQAEQVLKQALKEFGEPWDLNSGDGAFYGPKIDVHLHDALGRPHQCGTIQLDFQLPLRFDLQYKGQAGALERPVLIHRAVLGSVERLLGVLAESCGGKWPLWLSPFQVVVIPVGSEQEEYAKEAQQSLRAAGLVSDLDADSGLTLSRRIRRAQLAHYNFQFVVGQKEQSKRTVNIRTRDNRRLGEWDLPEAVQRLVELQNTRVPNAEEIF
- soluble on expression in E. coli: soluble

Sequence: MSLNILISGIHGFVGSNFIRALKDKHTLYGLDIVSPAKEGVVTTFSWQDFEPTSFPFQTLPQFDAIIHLAGKAHDTKKQSAAQSYFDINTGLTQKIFDFFLESSAKKFIFFSSVKAAADSVVGDVLTEDVIPTPVGPYGESKIKAEEYIKNHFMFPTSSISEDRSLRLEKEKGRIPKNKQVYILRPCMIHGPGNKGNLNLLYNVVKKGIPWPLGDFDNRRSFTSIDNLCYVIEGLLNQDVPTGIYHMGDDEALSTNELIGIMCEAMGKKPHIWKMNKRVMEGCAGLGTLMHLPLNTERLRKLTENYVVSNAKIKAALGIDKLPVTAKEGLMKTIRSFEETKEGHHHHHH
- soluble on expression in E. coli: soluble

Sequence: MQPHPETTPVTSCTIIDATDRSIRQTLGETSTLARLIWVDAGLASPPLCSGLARCGRCRVRITEAAPAPHEDDREFFSAEDISAGWRLACRHAPAHGMVVHVPLPVMPHRHASRPKHPGPFRLAVDLGTTSLQWSLLAPDGTVAAQGSETNPQMGAGSDVMSRIAMARSDKGRGRLRELVLQALRRIVADVEGTPATADAVPPAGSGDEPTTACGYESRVEELCVAGNTAMTAILADESVEGLASAPYRLEMRGGTALALPGLPPAWIPPLPAPFVGGDLSAGYLAVLTDHAPAFPFVLADLGTNGEFVLALSPERTLVTSVALGPALEGIGLTFGTVAQRGAITSFTLTPGGLVPYVLDGGEADGISGTGYISLVHALLRAGLLDVDGRFIQSPSSPLAARMARSIVSHRGEPCLPLARGLYLAARDIEEILKVKAAFSLAFERLLATAQMPSHALSGIHLAGALGQHALPADLEGLGFIPPGSGGRTRAVGNTSLRGAELLLTSPPLRDTLNTWREGCTVVDLTAAPDFSAAFLRHMHFHFLEHHHHHH
- soluble on expression in E. coli: soluble

Sequence: MGSDKIHHHHHHMSETVTESYIGSAIVYIDGRDCGNVSGVKLAIDQETKSLPNYRGGGGNADEVTLIKAVKLSGTFYDFNNDNLALAMRGKIDVLTAAAVVDEDITAVLDGLAPTVHMIDTSVAPVVKNTAGDSTYVLDEDYVVSAAGIRALSGGAITAGQALKLSYTSQAGNALQALTESGKTVSVVVDGINDSTGKPWTLKFYKWKPTPTSGLDLIGTDYGSFDIEGAVLADSSIVATGKSKFFVRSAA
- soluble on expression in E. coli: not soluble

Sequence: AKDFEWNFAATLSMDKNKVTRLYGDNDVVYNVDSDRNIQKEGNLFLGESRNTIYIWKTGGIAQEIDMDRLNKINWNGYNVNPGDLYPLDYDNNGQIDQNDRVVIGSTDPKFYGGFSTDFSWKGLSLNAVFSYSYGAKKLSPWYETLIGSTGSGVASTDLLDRWTPENTDAEFPRVLAGFDYNHYGASSMDFSVQKASFLRLSALTLAYTFPTKVINALKLTNLRVYATGSNLFCLTNYNGYDPETGDWYPPTRMYTFGLNLAF
- soluble on expression in E. coli: not soluble

Sequence: MLRRQMSFNGKSDMGILYLVPTPIGNLEDMTFRAIDTLKSVDAIAAEDTRQTKKLCHVYEIETPLVSYHEHNKESSGHKIIEWLKSGKNIALVSDAGLPTISDPGAEIVKDFTDIGGYVVPLPGANAALTALIASGIVPQPFFFYGFLNRQKKEKKKELEALKKRQETIIFYEAPHRLKETLSAMAEILGDREIAVTRELTKKYEEFIRGTISEVIGWANEDQIRGEFCLVVEGSNNEEVDEEEQWWETLTAKEHVEHYISKGATSKEAIKKAAVDRNVPKREVYDAYHIKQ
- soluble on expression in E. coli: soluble

Sequence: MSLKKISFIINGQVEIFPESDDLVQSINFGDNSVYLPILNNSHVKNIIDYNENNKLRLHNIVNFLYTVGQRWKNEEYSRRRTYIRDLKKYMGYSEAMAKLEANWISMILCSKGGLYDVVENELGSRHIMDEWLPQDESYIKAFPKGKSIHLLAGNVPLSGIMSILRAILTKNQCIIKTSSTDPFTANALALSFIDVDPNHPITRSLSVVYWPHQGDTSLAKEIMQHMDVIVAWGGEDAINWAVEHAPPYADVIKFGSKKSFCIIDNPVDLTSAATGAAHDICFYDQRACFSAQNIYYMGNQYEEFKLALIEKLNLYAHILPNAKKDFDEKAAYSLVQKESLFAGLKVEVDVHQRWMIIESNAGVEFNQPLGRCVYLHHVDNIEQVLPYVQKNKTQTISIFPWESAFKYRDALALRGAERIVEAGMNNIFRVGGSHDGMRPLQRLVTYISHERPSHYTAKDVAVEIEQTREGHHHHHH
- soluble on expression in E. coli: soluble

Sequence: MQLLTEKDRPEEEKREETWRRLKRDIASSANTIHEIDTGKARGYNRALFVSSIFNKVSTFAGHGDVEIVQKAIDFISEYNAGIKKPVITPRHRFFQLAETASRMRDKLKETQELENREVTFEGGILVWNYQESRLQVFFNKIPEESKRRELKSSGFHWSPRNRAWQRQLNPNAVSAAKRILNL
- soluble on expression in E. coli: not soluble

Sequence: MSRTEGSHEAEQDLTMIVGTYTSGDSKGLYSFRFNEENGTATALSEAEVENPSYLVPSADGKFIYAVSEFSNEQAAANAFAFNKEEGTFRLLNTQKTGGEDPCYIITNGSNVVTANYSGGSISVFPIDKDGSLLPASEVVKFKGSGADKERQEKPHLHCVRITPDGKYLFADDLGTDQIHKFIVNPNAKADNEDVFLKEGSPASYKVEAGSGPRHLTFAPNGSYAYLINELSGTVIAFEYNDGELKEIQTIAADTVGAKGSGDIHISPDGKFLYASNRLKADGLAIFSIHPENGMLTKVGYQLTGIHPRNFIITPNGKYLLVACRDSNVIQVYERDTDTGLLTDIRKDIKVDKPVCIKFVPLEHHHHHH
- soluble on expression in E. coli: soluble

Sequence: RTVRQTPKQSERYVVVLSLDGFRPDYTDRARTPALDRMAQEGLSGSLQPCFPSLTFPNHYSMATGLYPDHHGIVANEFVDSLLGIFRISDRKAVETPGFWGGEPVWNTAARQGIRTGVYFWVGSETAVNGNRPWRWKKFSSTVPFRDRADSVIAWLGLPEKERPRLLMWYIEEPDMIGHSQTPESPLTLAMVERLDSVVGYFRKRLDSLPIAAQTDFIIVSDHGMATYENEKCVNLSH
- soluble on expression in E. coli: not soluble

Sequence: AHHHHHHGSEKQGEKMKRLGKVLHYAKQGFLIVRTNWVPSLNDRVVDKRLQFVGIVKDVFGPVKMPYVAIKPKVSNPEIYVGEVLYVDERKRKESPKKNKEKRMKKKKRLNR
- soluble on expression in E. coli: not soluble

Sequence: MIRLPLLPTVIKNLFKKPATNPFPKTEPVPVPEDFRGKLVYNVDKCVGCRMCVTVCPAGVFVYLPEIRKVTLWIGRCVMCKQCVDVCPTAALQMSDEFLLASYDKYDAKLIYLTPEEAEDIKKKLEEANKAKAEKQASK
- soluble on expression in E. coli: not soluble

Sequence: GPGSMQQSLIPGHNNNRHLTYDEVENNIGGLPVTDNRIQDLFDSLDVDHSGTVSVEVVKKFYMGLEHYGVDLSDKELDEMVRKYAATHDESLSYEEFACFVLSLAQW
- soluble on expression in E. coli: soluble

Sequence: MADTGEKDTETTASGTDGHSKEALAVISMLHECGIQEFDPRVVSMLMDVQYAVTSKILQMSSGLSRHAEKAQIEAEDVQTAADMLGVLTTNAPDREKILQLANDKNQQPLPQIRHNYGLKLPNDRFCQLQQNFVYKADDSYQPMEMQQVTHQPHIIEPPTQVLRPEHVQNMLKRRAPDDDFDS
- soluble on expression in E. coli: not soluble

Sequence: LRRTALNGRFCRLEPLDVDRHAADLFAAYALGDNSDWTWLASTRPESVTATAHWIAGKVNDDVLVPYAVVDLRSEQAVGIVSYMAIEREMGTVEIGHVTWSRRMKNTPLGTEAVWLLLKNGFDHGYRRLEWKCDSMNVASRRAAERLGFSWEGRLRQRLVRKGRTRDSDMLSIIDGEWPARD
- soluble on expression in E. coli: not soluble

Sequence: MAHHHHHHMLRLLPLRLASKVTAGNAKNQAGHPRRKAKLFHVIPGTPVTPMEKLKEQRRRYGQDRHSRLPEYRPGKNVRLDPNTFTLYATTKGVMTIRESRINPKYKWLEVEPDIQKVYRSSQMRRALAARGMTSQMVEKNEHYRSEMDLLLEPHWRQRVMRVPKATERFKDPNLFVRGVITELTPMDRYCYE
- soluble on expression in E. coli: not soluble

Sequence: MGSDKIHHHHHHMDLSSNRLAGKSILITRPLHQAGGLATWVRELGGEPWLFPVLEISDSENKQPLLDLIARLDEFDLAVFVSPNAVEKVIPLVQVSHSWPRHVLVATVGKGSARVLERYGITNVIVPEEGSDSEALLRMPQFQVMQGRHVVIFRGNDGRRLLGDTLRERGASVEYIECYRRHKPEADPLPLLKHWRDDGIQAVIISSSEGLDNLFDMIGETGQQLLKATPVFTAHERIERKARELGIRKIYRTLLGDEGTVQGLLEYFEKM
- soluble on expression in E. coli: not soluble
